B1: Rho guanine nucleotide exchange factor 2 (Mus musculus), Q60875 (parent)
chain: MSRIESLTRARIDRSKEQATKTREKEKMKEAKDARYTNGHLFTTISVSGMTMCYACNKSITAKEALICPTCNVTIHNRCKDTLANCTKVKQKQQKAALLRNNTALQSVSLRSKTTTRERPTSAIYPSDSFRQSLLGSRRGLSSLSLAKSVSTTNIAGHFNDESPLGLRQILSQSTDSLNMRNRTLSVESLIDEGVEVFYNELMSDFEMDEKDFEADSWSLAVDSSFLQQHKKEVMKKQDVIYELIQTELHHVRTLKIMTRLFRTGMLEELQMEPEVVQGLFPCVDELSDIHTRFLNQLLERRRQALCPGSTRNFVIHRLGDLLISQFSGSNAEQMRKTYSEFCSRHTKALKLYKELYARDKRFQQFIRKMTRSAVLKRHGVQECILLVTQRITKYPVLINRILQNSHGVEEEYQDLASALGLVKELLSNVDQDVHELEKEARLQEIYNRMDPRAQTPVPGKGPFGRDELLRRKLIHEGCLLWKTATGRFKDVLLLLMTDVLVFLQEKDQKYIFTSLDKPSVVSLQNLIVRDIANQAKGMFLISSGPPEMYEVHAASRDDRTTWIRVIQQSVRLCPSREDFPLIETEDKAYLRRIKTKLQQKNQALVELLQKNVELFAEMVHFQALKAGFVGMPPPALPRGLFRLESFESLRGERLLKDALREVEGLKDLLLGPCVDLPMTSREPALPLDSDSGSCPGVTANGEARTFNGSIELCRADSDSSQKDRNGNQLRSPQEEVLQPLINLYGLLHGLQAVVVQQERLMEALFPEGPERWEKLSRANSRDGEAGRAAVASVTPEKQATELALLQRQHTLLQEELRRCQRLGEERATEAGSLEARLRESEQARALLEREAEEIRRQLAALGQNEPLPAEAPWARRPLDPRRRSLPAGDALYLSFNPPQPSRGHDRLDLPVTVRSLHRPFDDREAQELGSPEDRLQDSSDPDTGSEEEVSSRLSPPHSPRDFTRMQDIPEETESRDGEPTASES

Variants of: B1
Settings: with rhoa_human RHOA

Row | Variant | effect of a mutation on the interaction
1 | E243K | disrupting interaction
